For seven substances, fold to wt-fucose, FcγR reporter signaling, fold to wt-fucose [cont'd] and fold-change (reference not given) results are on record in patent US20260184814A1, “BROADLY NE[…] INFLUENZA NEURAMINIDASE” (priority 2022, published 2026).

Assay [1] addresses human FcγRIIa (R131 allele) (human) (UniProt P12318). Nature of the assay: MSD [cont'd].
For the next assay, the target named is human FcRn (human) (UniProt P55899). Nature of the assay: MSD [cont'd].
The target in assay [2] is human FcγRIIa (H131 allele) (human) (UniProt P12318). The assay can be described thus: MSD [cont'd].
human FcγRIIa (H131 allele) (human), sequence (P12318 34-218 limits assumed): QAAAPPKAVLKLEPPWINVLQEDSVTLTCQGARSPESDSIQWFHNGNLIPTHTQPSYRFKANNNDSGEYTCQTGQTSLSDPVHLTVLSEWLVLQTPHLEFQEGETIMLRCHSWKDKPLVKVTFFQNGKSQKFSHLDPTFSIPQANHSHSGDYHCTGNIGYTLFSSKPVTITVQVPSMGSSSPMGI
Assay [3] deals with human FcγRIIIa (V158 allele) (human) (UniProt P08637). Nature of the assay: MSD [cont'd].
human FcγRIIIa (V158 allele) (human), sequence (P08637 17-208 F176V limits assumed): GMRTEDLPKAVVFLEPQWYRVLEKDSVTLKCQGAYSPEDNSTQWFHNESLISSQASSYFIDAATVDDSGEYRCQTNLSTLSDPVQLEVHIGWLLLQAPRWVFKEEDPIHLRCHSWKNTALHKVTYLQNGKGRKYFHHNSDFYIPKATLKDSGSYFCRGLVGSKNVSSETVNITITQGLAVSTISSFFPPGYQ
The target in assay [4] is human FcγRIIb (human) (UniProt P31994). The assay can be described thus: MSD [cont'd].
human FcγRIIb (human), sequence (P31994 43-217 limits assumed): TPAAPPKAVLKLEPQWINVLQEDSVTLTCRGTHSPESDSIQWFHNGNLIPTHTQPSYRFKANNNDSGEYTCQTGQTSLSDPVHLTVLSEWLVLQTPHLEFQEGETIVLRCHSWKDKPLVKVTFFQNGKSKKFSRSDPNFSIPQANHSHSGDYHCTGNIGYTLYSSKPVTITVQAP
For assay [5], the target named is human FcγRIIIb (human) (UniProt O75015). Nature of the assay: MSD [cont'd].
human FcγRIIIb (human), sequence (O75015 17-200 limits assumed): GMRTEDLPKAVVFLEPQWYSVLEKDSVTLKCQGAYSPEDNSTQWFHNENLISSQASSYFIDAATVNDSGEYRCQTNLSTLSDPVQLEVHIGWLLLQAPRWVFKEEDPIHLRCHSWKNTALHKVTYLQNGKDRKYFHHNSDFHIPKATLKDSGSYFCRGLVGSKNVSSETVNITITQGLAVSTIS
The target of assay [6] is human FcγRIIIa (F158 allele) (human) (UniProt P08637). The assay can be described thus: MSD [cont'd].
human FcγRIIIa (F158 allele) (human), sequence (P08637 17-208 limits assumed): as the sequence (P08637 17-208 F176V limits assumed) above, with V160F counted along it
Assay [7] concerns the target human FcγRIIIa (V158 allele) (human) (UniProt P08637).
The target in assay [8] is human FcγRIIIa (F158 allele) (human) (UniProt P08637).
Assay [9] deals with human FcγRIIa (R131 allele) (human) (UniProt P12318). Nature of the assay: MSD.
human FcγRIIa (R131 allele) (human), sequence (P12318 34-218 H167R limits assumed): as the sequence (P12318 34-218 limits assumed) above, with H134R counted along it
In assay [10] the target is human FcγRIIa (H131 allele) (human) (UniProt P12318). The assay can be described thus: MSD.
Assay [11] deals with human FcγRIIIa (V158 allele) (human) (UniProt P08637). Nature of the assay: MSD.
The target of assay [12] is human FcγRIIb (human) (UniProt P31994). The assay can be described thus: MSD.
Assay [13] deals with human FcγRIIIb (human) (UniProt O75015). Nature of the assay: MSD.
The target of assay [14] is human FcγRIIIa (F158 allele) (human) (UniProt P08637). Nature of the assay: MSD.

human FcRn (human), sequence (P55899 24-297 limits assumed, chain 1 of 2): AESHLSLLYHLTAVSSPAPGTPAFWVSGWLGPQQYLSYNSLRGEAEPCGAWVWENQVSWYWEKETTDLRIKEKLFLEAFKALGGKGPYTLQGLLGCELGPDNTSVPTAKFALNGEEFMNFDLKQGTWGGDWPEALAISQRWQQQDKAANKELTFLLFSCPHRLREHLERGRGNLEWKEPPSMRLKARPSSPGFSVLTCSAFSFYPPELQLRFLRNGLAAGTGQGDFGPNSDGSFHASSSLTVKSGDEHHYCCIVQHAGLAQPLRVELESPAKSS
human FcRn (human), sequence (chain, as listed by the source limits assumed, chain 2 of 2): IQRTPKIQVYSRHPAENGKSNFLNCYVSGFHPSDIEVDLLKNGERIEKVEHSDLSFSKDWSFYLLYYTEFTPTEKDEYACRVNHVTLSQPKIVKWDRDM

Consider G236A_R292P-afuc (antibody), for which the fold to wt-fucose in assay [1] was found to be 1.04 fold; in the assay with human FcRn (human) it was 0.73 fold; in assay [2] it was 3.05 fold; in assay [3], 3.37 fold; with human FcγRIIb (human) [4] it was 0.51 fold; with human FcγRIIIb (human) [5], 1.15 fold. In assay [6], the fold to wt-fucose worked out at 5.83 fold. The FcγR reporter signaling, fold to wt-fucose [cont'd] is 2.18 fold in assay [7] and 3.34 fold in [8].

On to G236A_K334A_Q295E-afuc (antibody), for which the fold to wt-fucose amounted to 3.75 fold in assay [1]; 1.11 fold with human FcRn (human); 5.32 fold in assay [2]; 7.93 fold in assay [3]; 0.55 fold with human FcγRIIb (human) [4]; 1.62 fold with human FcγRIIIb (human) [5]. For the same substance, the fold to wt-fucose in assay [6] was 27.5 fold. The values for the FcγR reporter signaling, fold to wt-fucose [cont'd] in assay [7] and in assay [8] were 5.54 fold and 12.7 fold, respectively.

For the substance G236S_R292P_Y300L-afuc (antibody), the fold to wt-fucose in [1] was determined as 1.5 fold; in the assay with human FcRn (human) it was 0.8 fold; in assay [2] it was 8.13 fold; in assay [3], 3.17 fold; with human FcγRIIb (human) [4], 0.72 fold; in the assay with human FcγRIIIb (human) [5] it was 1.04 fold. Besides, in assay [6], the fold to wt-fucose came to 5.47 fold. Further, the FcγR reporter signaling, fold to wt-fucose [cont'd] in assay [7] is 2.87 fold; in assay [8], 6.54 fold.

As to G236A_P230A_Q295E-afuc (antibody), the fold to wt-fucose in assay [1] was determined as 6.04 fold; with human FcRn (human), 1.02 fold; in assay [2] it was 8.94 fold; in assay [3], 10.8 fold; in the assay with human FcγRIIb (human) [4], 0.67 fold; with human FcγRIIIb (human) [5], 1.8 fold. Also, the fold to wt-fucose in assay [6] worked out at 26.7 fold. Further, the values for the FcγR reporter signaling, fold to wt-fucose [cont'd] in assay [7] and in assay [8] were 5.54 fold and 10.9 fold, respectively.

Take “G236A_A330L_I332E_M428L_N434S-afuc (antibody)”: the fold to wt-fucose in assay [1] amounted to 1.2 fold; with human FcRn (human), 7.37 fold; in assay [2] it was 2.56 fold; in assay [3] it was 34.5 fold; with human FcγRIIb (human) [4], 0.41 fold; in the assay with human FcγRIIIb (human) [5] it was 11.8 fold. Besides, in assay [6], the fold to wt-fucose was 275 fold. Further, the fold-change (reference not given) in assay [9] was found to be 1.1 fold; in [10], 2.3 fold; in [11] it was 30.2 fold; in the assay with human FcγRIIb (human) [12], 0.4 fold; with human FcγRIIIb (human) [13] it was 12.3 fold; in assay [14], 256 fold. The FcγR reporter signaling, fold to wt-fucose [cont'd] amounted to 6.2 fold in assay [7] and 16.4 fold in assay [8].

As for G236A_A330L_I332E-afuc (antibody), the fold to wt-fucose in [1] is 1.65 fold; with human FcRn (human), 1.09 fold; in assay [2], 3.45 fold; in assay [3], 32 fold; in the assay with human FcγRIIb (human) [4] it was 0.67 fold; with human FcγRIIIb (human) [5], 14.1 fold. Besides, the fold to wt-fucose in assay [6] came out at 259 fold. The fold-change (reference not given) in assay [9] is 1.6 fold; in [10] it was 3.1 fold; in [11], 28 fold; with human FcγRIIb (human) [12] it was 0.6 fold; with human FcγRIIIb (human) [13] it was 14.8 fold; in assay [14] it was 242 fold. Moreover, the FcγR reporter signaling, fold to wt-fucose [cont'd] in assay [7] came out at 5.27 fold; in assay [8], 14.8 fold.

For the substance G236S_G420V_G446E_L309T-afuc (antibody), the fold to wt-fucose in assay [1] came out at 1.7 fold; with human FcRn (human) it was 0.77 fold; in [2], 3.62 fold; in [3], 1.99 fold; in the assay with human FcγRIIb (human) [4], 0.44 fold; with human FcγRIIIb (human) [5] it was 0.86 fold. The fold to wt-fucose in [6] came out at 3.35 fold. The results for the FcγR reporter signaling, fold to wt-fucose [cont'd] in assay [7] and in assay [8] were 4 fold and 4.41 fold, respectively.
